The values below come from PMC10801921.

One data set addresses T1, ARR1 RD-DBD D89E (Arabidopsis thaliana, UniProt Q940D0 1-301, D89E).
T1 sequence: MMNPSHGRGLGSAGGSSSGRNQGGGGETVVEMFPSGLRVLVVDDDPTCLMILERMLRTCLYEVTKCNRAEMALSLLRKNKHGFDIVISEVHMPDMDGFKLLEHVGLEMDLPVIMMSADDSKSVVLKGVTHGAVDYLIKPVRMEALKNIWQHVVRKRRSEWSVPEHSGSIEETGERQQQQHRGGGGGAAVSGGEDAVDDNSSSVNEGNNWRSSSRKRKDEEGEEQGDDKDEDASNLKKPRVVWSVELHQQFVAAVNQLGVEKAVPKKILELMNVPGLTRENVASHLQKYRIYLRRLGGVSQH
Description: BLI.

For a further data set, the target named is T2, ARR1 RD-DBD R294A (Arabidopsis thaliana, UniProt Q940D0 1-301, R294A).
T2 sequence: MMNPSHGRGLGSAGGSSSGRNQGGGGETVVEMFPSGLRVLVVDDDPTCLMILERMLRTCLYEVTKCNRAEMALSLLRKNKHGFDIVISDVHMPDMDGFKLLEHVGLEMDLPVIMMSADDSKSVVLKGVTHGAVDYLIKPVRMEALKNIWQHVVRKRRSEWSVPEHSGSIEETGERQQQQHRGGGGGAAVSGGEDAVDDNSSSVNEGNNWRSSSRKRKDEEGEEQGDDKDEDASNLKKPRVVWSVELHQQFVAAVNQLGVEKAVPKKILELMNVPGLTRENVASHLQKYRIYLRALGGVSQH
Kind of data set: BLI. On the technique in general: BLI is a label-free optical method that tracks binding on a fibre tip over time.

A further data set deals with T3, ARR1 DBD (crystal) (Arabidopsis thaliana, UniProt Q940D0 221-301).
T3 sequence: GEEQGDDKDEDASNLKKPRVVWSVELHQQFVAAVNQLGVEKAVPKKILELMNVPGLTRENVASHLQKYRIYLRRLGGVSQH
Description: X-ray crystallography.

B1: DNA-TCS 40 bp (ARR6-40) (dsDNA)
DNA 1: GGATTAGATTAGATTAATCTGGATTAGATTAATCTAGATT
DNA 2: AATCTAGATTAATCTAATCCAGATTAATCTAATCTAATCC
Turning to B1, the binding result with ARR1 RD-DBD D89E and in the data set with ARR1 RD-DBD R294A was “binds” in each case.

B2: DNA-TCS 25 bp (crystal) (dsDNA)
DNA 1: AATCCAGATTAATCTAATCTAATCC
DNA 2: GGATTAGATTAGATTAATCTGGATT
For the molecule B2, the binding result with ARR1 DBD (crystal) is “binds”.
